Source: article PMC4353692

Biological target: Manduca sexta V-ATPase subunit c (c ring) (Manduca sexta (endogenous in midgut))
Experiment: cryo-EM structure; M. sexta V-ATPase holoenzyme purified from tissue, in C12E10; 9.4 Å reconstruction (gold standard FSC 0.143); homology models of the subunits flexibly fitted by MDFF; side chains not resolved

Substance “Manduca sexta V-ATPase subunit c (c ring) (natural protein)” has a stoichiometry N of 8.
